Experimental data as given in patent US20180273587A1 (AILERON THERAPEUTICS, published 2018).
Starred links: 1 amine or outer side, 2 acyl side, 3 side chain; linkers in the order of their positions; H or OH if unused. Positions of bridges follow the written chain, without caps; N, C: chain ends. Non-standard residues stand in square brackets, D forms with d. St = two pentenyl-alanine olefin side chains, each crosslinked to another residue (stitch), C=CCCCC(CCCC=C)(N[*:1])C(=O)[*:2]; R8 = C=CCCCCCC[C@@](C)(N)C(=O)O; R5 = C=CCCC[C@@](C)(N)C(=O)O; S5 = C=CCCC[C@](C)(N)C(=O)O

B1: Cross-linked peptide #1 (peptide)
peptide: Ac-IWIAQALR[R8]IGDEFN[S5]YYA-NH2
modifications: staple 9-16
SMILES: CC[C@H](C)[C@H](NC(C)=O)C(=O)N[C@@H](Cc1c[nH]c2ccccc12)C(=O)N[C@H](C(=O)N[C@@H](C)C(=O)N[C@@H](CCC(N)=O)C(=O)N[C@@H](C)C(=O)N[C@@H](CC(C)C)C(=O)N[C@@H](CCCNC(=N)N)C(=O)N[C@]1(C)CCCCCCC=CCCC[C@@](C)(C(=O)N[C@@H](Cc2ccc(O)cc2)C(=O)N[C@@H](Cc2ccc(O)cc2)C(=O)N[C@@H](C)C(N)=O)NC(=O)[C@H](CC(N)=O)NC(=O)[C@H](Cc2ccccc2)NC(=O)[C@H](CCC(=O)O)NC(=O)[C@H](CC(=O)O)NC(=O)CNC(=O)[C@H]([C@@H](C)CC)NC1=O)[C@@H](C)CC
B2: Cross-linked peptide #2 (peptide)
peptide: Ac-IWIAQALR[R8]IGDQFN[S5]YYA-NH2
modifications: staple 9-16
SMILES: CC[C@H](C)[C@H](NC(C)=O)C(=O)N[C@@H](Cc1c[nH]c2ccccc12)C(=O)N[C@H](C(=O)N[C@@H](C)C(=O)N[C@@H](CCC(N)=O)C(=O)N[C@@H](C)C(=O)N[C@@H](CC(C)C)C(=O)N[C@@H](CCCNC(=N)N)C(=O)N[C@]1(C)CCCCCCC=CCCC[C@@](C)(C(=O)N[C@@H](Cc2ccc(O)cc2)C(=O)N[C@@H](Cc2ccc(O)cc2)C(=O)N[C@@H](C)C(N)=O)NC(=O)[C@H](CC(N)=O)NC(=O)[C@H](Cc2ccccc2)NC(=O)[C@H](CCC(N)=O)NC(=O)[C@H](CC(=O)O)NC(=O)CNC(=O)[C@H]([C@@H](C)CC)NC1=O)[C@@H](C)CC
B3: Cross-linked peptide #3 (peptide)
peptide: Ac-IWIAAALR[R8]IGDEFN[S5]YYA-NH2
modifications: staple 9-16
SMILES: CC[C@H](C)[C@H](NC(C)=O)C(=O)N[C@@H](Cc1c[nH]c2ccccc12)C(=O)N[C@H](C(=O)N[C@@H](C)C(=O)N[C@@H](C)C(=O)N[C@@H](C)C(=O)N[C@@H](CC(C)C)C(=O)N[C@@H](CCCNC(=N)N)C(=O)N[C@]1(C)CCCCCCC=CCCC[C@@](C)(C(=O)N[C@@H](Cc2ccc(O)cc2)C(=O)N[C@@H](Cc2ccc(O)cc2)C(=O)N[C@@H](C)C(N)=O)NC(=O)[C@H](CC(N)=O)NC(=O)[C@H](Cc2ccccc2)NC(=O)[C@H](CCC(=O)O)NC(=O)[C@H](CC(=O)O)NC(=O)CNC(=O)[C@H]([C@@H](C)CC)NC1=O)[C@@H](C)CC
B4: Cross-linked peptide #4 (peptide)
peptide: Ac-IWIAAALR[R8]IGDQFN[S5]YYA-NH2
modifications: staple 9-16
SMILES: CC[C@H](C)[C@H](NC(C)=O)C(=O)N[C@@H](Cc1c[nH]c2ccccc12)C(=O)N[C@H](C(=O)N[C@@H](C)C(=O)N[C@@H](C)C(=O)N[C@@H](C)C(=O)N[C@@H](CC(C)C)C(=O)N[C@@H](CCCNC(=N)N)C(=O)N[C@]1(C)CCCCCCC=CCCC[C@@](C)(C(=O)N[C@@H](Cc2ccc(O)cc2)C(=O)N[C@@H](Cc2ccc(O)cc2)C(=O)N[C@@H](C)C(N)=O)NC(=O)[C@H](CC(N)=O)NC(=O)[C@H](Cc2ccccc2)NC(=O)[C@H](CCC(N)=O)NC(=O)[C@H](CC(=O)O)NC(=O)CNC(=O)[C@H]([C@@H](C)CC)NC1=O)[C@@H](C)CC
B5: Cross-linked peptide #7 (peptide)
peptide: Ac-IWIAQALR[R8]IGDAAN[S5]YYA-NH2
modifications: staple 9-16
SMILES: CC[C@H](C)[C@H](NC(C)=O)C(=O)N[C@@H](Cc1c[nH]c2ccccc12)C(=O)N[C@H](C(=O)N[C@@H](C)C(=O)N[C@@H](CCC(N)=O)C(=O)N[C@@H](C)C(=O)N[C@@H](CC(C)C)C(=O)N[C@@H](CCCNC(=N)N)C(=O)N[C@]1(C)CCCCCCC=CCCC[C@@](C)(C(=O)N[C@@H](Cc2ccc(O)cc2)C(=O)N[C@@H](Cc2ccc(O)cc2)C(=O)N[C@@H](C)C(N)=O)NC(=O)[C@H](CC(N)=O)NC(=O)[C@H](C)NC(=O)[C@H](C)NC(=O)[C@H](CC(=O)O)NC(=O)CNC(=O)[C@H]([C@@H](C)CC)NC1=O)[C@@H](C)CC
B6: Cross-linked peptide #8 (peptide)
peptide: Ac-IWIAQALR[R8]IGDQAN[S5]YYA-NH2
modifications: staple 9-16
SMILES: CC[C@H](C)[C@H](NC(C)=O)C(=O)N[C@@H](Cc1c[nH]c2ccccc12)C(=O)N[C@H](C(=O)N[C@@H](C)C(=O)N[C@@H](CCC(N)=O)C(=O)N[C@@H](C)C(=O)N[C@@H](CC(C)C)C(=O)N[C@@H](CCCNC(=N)N)C(=O)N[C@]1(C)CCCCCCC=CCCC[C@@](C)(C(=O)N[C@@H](Cc2ccc(O)cc2)C(=O)N[C@@H](Cc2ccc(O)cc2)C(=O)N[C@@H](C)C(N)=O)NC(=O)[C@H](CC(N)=O)NC(=O)[C@H](C)NC(=O)[C@H](CCC(N)=O)NC(=O)[C@H](CC(=O)O)NC(=O)CNC(=O)[C@H]([C@@H](C)CC)NC1=O)[C@@H](C)CC
B7: Cross-linked peptide #9 (peptide)
peptide: Ac-IWIAQALR[R8]IADQFN[S5]YYA-NH2
modifications: staple 9-16
SMILES: CC[C@H](C)[C@H](NC(C)=O)C(=O)N[C@@H](Cc1c[nH]c2ccccc12)C(=O)N[C@H](C(=O)N[C@@H](C)C(=O)N[C@@H](CCC(N)=O)C(=O)N[C@@H](C)C(=O)N[C@@H](CC(C)C)C(=O)N[C@@H](CCCNC(=N)N)C(=O)N[C@]1(C)CCCCCCC=CCCC[C@@](C)(C(=O)N[C@@H](Cc2ccc(O)cc2)C(=O)N[C@@H](Cc2ccc(O)cc2)C(=O)N[C@@H](C)C(N)=O)NC(=O)[C@H](CC(N)=O)NC(=O)[C@H](Cc2ccccc2)NC(=O)[C@H](CCC(N)=O)NC(=O)[C@H](CC(=O)O)NC(=O)[C@H](C)NC(=O)[C@H]([C@@H](C)CC)NC1=O)[C@@H](C)CC
B8: Cross-linked peptide #10 (peptide)
peptide: Ac-IWIAQALR[R8]AGDQFN[S5]YYA-NH2
modifications: staple 9-16
SMILES: CC[C@H](C)[C@H](NC(C)=O)C(=O)N[C@@H](Cc1c[nH]c2ccccc12)C(=O)N[C@H](C(=O)N[C@@H](C)C(=O)N[C@@H](CCC(N)=O)C(=O)N[C@@H](C)C(=O)N[C@@H](CC(C)C)C(=O)N[C@@H](CCCNC(=N)N)C(=O)N[C@]1(C)CCCCCCC=CCCC[C@@](C)(C(=O)N[C@@H](Cc2ccc(O)cc2)C(=O)N[C@@H](Cc2ccc(O)cc2)C(=O)N[C@@H](C)C(N)=O)NC(=O)[C@H](CC(N)=O)NC(=O)[C@H](Cc2ccccc2)NC(=O)[C@H](CCC(N)=O)NC(=O)[C@H](CC(=O)O)NC(=O)CNC(=O)[C@H](C)NC1=O)[C@@H](C)CC
B9: Cross-linked peptide #6 (peptide)
peptide: IWIAQALXAIGDQFNAYYA
modifications: not fully specified; N-terminal Ac; Cit at residue 8 (column 153); $r8 at residue 9 (column 154) and $ at residue 16 (column 161), crosslinked; C-terminal NH2
B10: SEQ ID NO: 1764 (peptide)
peptide: Ac-IWIAAALR[R8]IGDAFN[S5]YYH-NH2
modifications: staple 9-16
SMILES: CC[C@H](C)[C@H](NC(C)=O)C(=O)N[C@@H](Cc1c[nH]c2ccccc12)C(=O)N[C@H](C(=O)N[C@@H](C)C(=O)N[C@@H](C)C(=O)N[C@@H](C)C(=O)N[C@@H](CC(C)C)C(=O)N[C@@H](CCCNC(=N)N)C(=O)N[C@]1(C)CCCCCCC=CCCC[C@@](C)(C(=O)N[C@@H](Cc2ccc(O)cc2)C(=O)N[C@@H](Cc2ccc(O)cc2)C(=O)N[C@@H](Cc2c[nH]cn2)C(N)=O)NC(=O)[C@H](CC(N)=O)NC(=O)[C@H](Cc2ccccc2)NC(=O)[C@H](C)NC(=O)[C@H](CC(=O)O)NC(=O)CNC(=O)[C@H]([C@@H](C)CC)NC1=O)[C@@H](C)CC
B11: SEQ ID NO: 1765 (peptide)
peptide: Ac-IWIAAALR[R8]IGDAFN[S5]YYR-NH2
modifications: staple 9-16
SMILES: CC[C@H](C)[C@H](NC(C)=O)C(=O)N[C@@H](Cc1c[nH]c2ccccc12)C(=O)N[C@H](C(=O)N[C@@H](C)C(=O)N[C@@H](C)C(=O)N[C@@H](C)C(=O)N[C@@H](CC(C)C)C(=O)N[C@@H](CCCNC(=N)N)C(=O)N[C@]1(C)CCCCCCC=CCCC[C@@](C)(C(=O)N[C@@H](Cc2ccc(O)cc2)C(=O)N[C@@H](Cc2ccc(O)cc2)C(=O)N[C@@H](CCCNC(=N)N)C(N)=O)NC(=O)[C@H](CC(N)=O)NC(=O)[C@H](Cc2ccccc2)NC(=O)[C@H](C)NC(=O)[C@H](CC(=O)O)NC(=O)CNC(=O)[C@H]([C@@H](C)CC)NC1=O)[C@@H](C)CC
B12: SEQ ID NO: 1766 (peptide)
peptide: Ac-IWIAAALR[R8]IGDAFN[S5]YYK-NH2
modifications: staple 9-16
SMILES: CC[C@H](C)[C@H](NC(C)=O)C(=O)N[C@@H](Cc1c[nH]c2ccccc12)C(=O)N[C@H](C(=O)N[C@@H](C)C(=O)N[C@@H](C)C(=O)N[C@@H](C)C(=O)N[C@@H](CC(C)C)C(=O)N[C@@H](CCCNC(=N)N)C(=O)N[C@]1(C)CCCCCCC=CCCC[C@@](C)(C(=O)N[C@@H](Cc2ccc(O)cc2)C(=O)N[C@@H](Cc2ccc(O)cc2)C(=O)N[C@@H](CCCCN)C(N)=O)NC(=O)[C@H](CC(N)=O)NC(=O)[C@H](Cc2ccccc2)NC(=O)[C@H](C)NC(=O)[C@H](CC(=O)O)NC(=O)CNC(=O)[C@H]([C@@H](C)CC)NC1=O)[C@@H](C)CC

Molecular target: T1, BCL-2 (UniProt P10415 1-217, limits assumed)
T1 construct: Target of the Ki columns
Assay: Ki (Table 6); method not stated

T1 sequence (P10415 1-217 limits assumed): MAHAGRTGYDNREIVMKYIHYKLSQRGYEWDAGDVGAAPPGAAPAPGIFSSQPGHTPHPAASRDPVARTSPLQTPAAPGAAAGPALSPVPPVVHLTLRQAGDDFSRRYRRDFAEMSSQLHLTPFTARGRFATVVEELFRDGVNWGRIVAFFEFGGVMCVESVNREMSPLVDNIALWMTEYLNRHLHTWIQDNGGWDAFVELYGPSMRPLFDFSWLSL

Binder | Ki [nM]
B1 | 3.2
B2 | 67
B3 | 6
B4 | 22
B5 | 140
B6 | 43.9
B7 | 25.6
B8 | 4.8
B9 | 88.2

Molecular target: T2, BCL-XL (UniProt Q07817 1-209)
T2 construct: Target of the Ki columns
Assay: Ki (Table 6); method not stated

T2 sequence (Q07817 1-209): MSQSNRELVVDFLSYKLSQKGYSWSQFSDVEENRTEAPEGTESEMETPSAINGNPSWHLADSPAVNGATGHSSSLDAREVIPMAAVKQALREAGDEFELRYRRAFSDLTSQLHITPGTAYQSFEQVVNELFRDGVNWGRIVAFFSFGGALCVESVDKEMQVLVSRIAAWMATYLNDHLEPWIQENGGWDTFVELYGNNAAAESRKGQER

Binder | Ki [nM]
B1 | 1.4
B2 | 12
B3 | 1
B4 | 4
B5 | 402
B6 | 24.9
B7 | 7.7
B8 | 1.9
B9 | 28.8

Molecular target: T3, MCL-1 (UniProt Q07820 172-327, limits assumed)
T3 construct: Target of the Ki columns; also called Myeloid cell leukemia 1
Assay: Ki (Table 6); method not stated

T3 sequence (Q07820 172-327 limits assumed): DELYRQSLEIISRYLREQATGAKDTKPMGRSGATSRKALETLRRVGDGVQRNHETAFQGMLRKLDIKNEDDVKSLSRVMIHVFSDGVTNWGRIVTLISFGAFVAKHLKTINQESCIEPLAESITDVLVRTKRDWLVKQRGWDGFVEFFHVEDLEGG

Binder | Ki [nM]
B1 | 1.8
B2 | 5.2
B3 | 1
B4 | 6
B5 | 7.5
B6 | 1.4
B7 | 116
B8 | 122

Molecular target: T1, BCL-2
Assay: Ki; method not stated; unit not printed (nM per Table 6)

Binder | Ki [nM]
B10 | 98.8
B11 | 142
B12 | 43.4
Ac-IWIAQALR[R8]IGDEFN[St]YYA[R5]A-NH2 (staple 16-20, 9-16) [SEQ ID NO: 1784] | 57.7

Molecular target: T2, BCL-XL
Assay: as above

Binder | Ki [nM]
B10 | 73.8
B11 | 186
B12 | 66.3
Ac-IWIAQALR[R8]IGDEFN[St]YYA[R5]A-NH2 (staple 16-20, 9-16) [SEQ ID NO: 1784] | 24.2

Molecular target: T3, MCL-1
Assay: as above

Binder | Ki [nM]
B10 | 10.6
B11 | 18.5
B12 | 6.6
Ac-IWIAQALR[R8]IGDEFN[St]YYA[R5]A-NH2 (staple 16-20, 9-16) [SEQ ID NO: 1784] | 11.6
